According to PMC11731035:

Molecular target: plastidic 70S ribosomes of Arabidopsis thaliana (Arabidopsis thaliana (endogenous))
Test: co-sedimentation; lysate of Col-0 plants grown at 21 °C layered on a 25% sucrose cushion, 173,292 x g for 20 min; immunoblot of total, supernatant and ribosomal pellet, quantified as R/(R+S); standard ribosome buffer (Mg2+), also with 800 mM KCl (high salt) or 1 mM puromycin

Row | fraction co-sedimented with ribosomes [%] | Substance
1 | 8 | Trigger factor 1 (Tig1), Arabidopsis thaliana chloroplast (natural protein)
2 | 25 | Trigger factor 2 (Tig2), Arabidopsis thaliana chloroplast (natural protein)
